From paper PMC8963248, “Natural Human Immunity Against Staphylococcal Protein A Relies on Effector Functions Triggered by IgG3” (Frontiers in Immunology, 2022)

B1: anti-SpA monoclonal antibody mAb-2 in IgG3 scaffold (antibody, V domains shown)
VH: QVQLVQSGAEVKKPGASVKVSCKASGYTFTRYYMHWVRQAPGQGLEWMGWINPPSGGTNYAQKFQGRVTMTRDTSTSTVYMELSSLRSEDTAVYYCARDPPMGQGMDVWGQGTLVTVSS
VL: EIVLTQSPATLSVSPGERATLSCRASQSISSYLNWYQQKPGQAPRLLIYAASSLQSGIPARFSGSGSGTEFTLTISSLQSEDFAVYYCQQSFVAPFTFGGGTKVEIK
notes: heavy variable region; human IgG3 scaffold (heavy constant region); light chain; IgG3; also called IgG3 mAb-2; source: Expi293, transient transfection, purified (protein G)
B2: anti-SpA monoclonal antibody mAb-3 in IgG3 scaffold (antibody, V domains shown)
VH: QVQLVQSGAEVKKPGASVKVSCKASGYTFSHYYMHWVRQAPGQGLEWMGIINPRYGSTSYAQKFQGRVTMTRDTSTSTVYMELSSLRSEDTAVYYCARDGEVGARDLGWFDPWGQGTLVTVSS
VL: EIVLTQSPATLSVSPGERATLSCRASQSVSSNLAWYQQKPGQAPRLLIYGASTRATGIPARFSGSGSGTEFTLTISSLQSEDFAVYYCQQYTPLPWTFGGGTKVEIK
notes: heavy variable region; human IgG3 scaffold (heavy constant region); light chain; IgG3; also called IgG3 mAb-3; source: Expi293, transient transfection, purified (protein G)
B3: anti-SpA monoclonal antibody mAb-1 in IgG3 scaffold (antibody, V domains shown)
VH: EVQLVESGGGLVQPGGSLRLSCAASGFTFSTYGMSWVRQAPGKGLEWVSSITGSGRSTFYADSVKGRFTISRDNSTNTLSLQMNSLRAEDTAVYYCARSPADIVTGYYPWWFDLWGQGTLVTVSS
VL: DIQMTQSPSSLSASIGDRVTITCRASQSINTYLNWYQQKPGKAPRLLIAGASSLQSGVPSRFSGSGSGTDFTLTISSLQPEDFATYYCQQANSFPLTFGQGTRLEIK
notes: heavy variable region; human IgG3 scaffold (heavy constant region); light chain; IgG3; also called IgG3 mAb-1; source: Expi293, transient transfection, purified (protein G)

These binders were tested against T1, SpA wild type (Staphylococcal protein A, recombinant) (Staphylococcus aureus NCTC 8325, UniProt P02976, biotinylated (only for the beads of the phagocytosis assays); chemically coupled by amines to MagPlex beads in the Luminex assays) (assay: Luminex bead displacement assay; SpAwt coupled to MagPlex beads, saturated with biotinylated human IgGs (8 µg/mL, 30 min, room temperature), washed, then incubated with serially diluted IgG3 mAbs 1-4 or IgG3 isotype control in PBS; remaining human IgGs revealed with streptavidin-PE). Conditions: both partners purified.
T1 construct: Staphylococcal protein A (SpA) of S. aureus strain NCTC 8325, locus tag SAOUHSC_00069; In the functional rows on bacteria the SpA is that on S. aureus USA300 lac, not this recombinant protein; also called SpAwt
T1 sequence (P02976 37-485): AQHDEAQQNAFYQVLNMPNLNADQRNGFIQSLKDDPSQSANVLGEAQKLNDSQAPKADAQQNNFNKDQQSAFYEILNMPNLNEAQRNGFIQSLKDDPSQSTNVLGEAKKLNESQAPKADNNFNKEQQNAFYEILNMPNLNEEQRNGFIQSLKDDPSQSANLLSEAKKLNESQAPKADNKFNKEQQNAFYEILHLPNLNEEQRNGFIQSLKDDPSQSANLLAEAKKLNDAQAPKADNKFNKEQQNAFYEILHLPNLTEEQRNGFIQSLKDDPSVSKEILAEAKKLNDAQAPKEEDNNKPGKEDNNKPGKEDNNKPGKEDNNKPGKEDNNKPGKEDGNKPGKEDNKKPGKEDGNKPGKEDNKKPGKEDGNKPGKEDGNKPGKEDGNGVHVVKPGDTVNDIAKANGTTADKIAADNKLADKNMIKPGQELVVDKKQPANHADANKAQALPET

Binder	binding result
B1	binds
B2	binds
B3	binds
